Test results as given in the supplement of paper PMC9112550, “Optimization of the antimicrobial peptide Bac7 by deep mutational scanning” (BMC Biology, 2022).

Tested on: Escherichia coli TOP10
Test: shrunken log2 fold change of peptide-encoding DNA abundance (4.5 h post-induction vs induction); higher = less antimicrobial activity (less host growth inhibition)
Conditions: time post-induction: 4.5 h; library: site-saturation at positions 5, 18, 19, 20
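Also: peptides expressed intracellularly from a pBAD plasmid library in pooled LB shake-flask culture, induced with 0.3% L-arabinose, DNA abundance read by NGS, three biological replicates, DESeq2 with apeglm shrinkage.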

| Sequence | shrunken log2 fold change |
| --- | --- |
| RRIRARPPRLPRPRPRPRHMPRP | -0.00102 |
| RRIRIRPPRLPRPRPRPVVDPRP | -0.105 |
| RRIRLRPPRLPRPRPRPQGSPRP | -0.0921 |
| RRIRYRPPRLPRPRPRPKQMPRP | 0.0213 |
| RRIRHRPPRLPRPRPRPFDHPRP | -0.0277 |
| RRIRFRPPRLPRPRPRPGIWPRP | 0.125 |
| RRIRTRPPRLPRPRPRPFSIPRP | -0.284 |
| RRIRYRPPRLPRPRPRPNLDPRP | -0.148 |
| RRIRNRPPRLPRPRPRPTPDPRP | 0.17 |
| RRIRQRPPRLPRPRPRPMHYPRP | -0.276 |
| RRIRWRPPRLPRPRPRPGQCPRP | 0.00553 |
| RRIRGRPPRLPRPRPRPKINPRP | 0.426 |
| RRIRPRPPRLPRPRPRPQVDPRP | -0.0328 |
| RRIRTRPPRLPRPRPRPFPSPRP | 0.0745 |
| RRIRLRPPRLPRPRPRPEGCPRP | 0.191 |
| RRIRMRPPRLPRPRPRPIDKPRP | -0.197 |
| RRIRNRPPRLPRPRPRPRKCPRP | -0.0149 |
| RRIRVRPPRLPRPRPRPATKPRP | 0.153 |
| RRIRVRPPRLPRPRPRPTHMPRP | 0.0408 |
| RRIRDRPPRLPRPRPRPCMFPRP | -0.00227 |
| RRIRKRPPRLPRPRPRPCVVPRP | 0.0713 |
| RRIRKRPPRLPRPRPRPNLSPRP | -0.0224 |

| Sequence | shrunken log2 fold change |
| --- | --- |
| RRIRCRPPRLPRPRPRPELMPRP | 0.23 |
| RRIRMRPPRLPRPRPRPNCNPRP | 0.675 |
| RRIRMRPPRLPRPRPRPRWEPRP | 0.814 |
| RRIRIRPPRLPRPRPRPWVSPRP | -0.119 |
| RRIRTRPPRLPRPRPRPNDYPRP | -0.523 |
| RRIRERPPRLPRPRPRPFMEPRP | -0.00484 |
| RRIRMRPPRLPRPRPRPMSMPRP | 0.11 |
| RRIRDRPPRLPRPRPRPTRGPRP | 0.67 |
| RRIRWRPPRLPRPRPRPFGRPRP | -0.0754 |
| RRIRWRPPRLPRPRPRPFGAPRP | 0.197 |
| RRIRSRPPRLPRPRPRPDYWPRP | 0.0977 |
| RRIRHRPPRLPRPRPRPFYSPRP | -0.00674 |
| RRIRHRPPRLPRPRPRPHIVPRP | -0.104 |
| RRIRQRPPRLPRPRPRPNLTPRP | -0.432 |
| RRIRMRPPRLPRPRPRPENAPRP | 0.0504 |
| RRIRQRPPRLPRPRPRPSQPPRP | -0.267 |
| RRIRRRPPRLPRPRPRPCGWPRP | 0.776 |
| RRIRLRPPRLPRPRPRPENCPRP | -0.0062 |
| RRIRARPPRLPRPRPRPFAMPRP | 0.236 |
| RRIRARPPRLPRPRPRPTLHPRP | 0.584 |
| RRIRVRPPRLPRPRPRPFFWPRP | 0.395 |
| RRIRPRPPRLPRPRPRPPCSPRP | -0.232 |

| Sequence | shrunken log2 fold change |
| --- | --- |
| RRIRFRPPRLPRPRPRPAGNPRP | 0.135 |
| RRIRTRPPRLPRPRPRPGPQPRP | 0.0198 |
| RRIRERPPRLPRPRPRPMIAPRP | 0.121 |
| RRIRIRPPRLPRPRPRPTQGPRP | -0.104 |
| RRIRNRPPRLPRPRPRPNMSPRP | -0.0455 |
| RRIRARPPRLPRPRPRPRKSPRP | 0.778 |
| RRIRIRPPRLPRPRPRPPPFPRP | 0.481 |
| RRIRARPPRLPRPRPRPFGFPRP | 0.261 |
| RRIRRRPPRLPRPRPRPGVYPRP | -0.0241 |
| RRIRMRPPRLPRPRPRPVHWPRP | 0.155 |
| RRIRQRPPRLPRPRPRPPEAPRP | 0.243 |
| RRIRPRPPRLPRPRPRPCEPPRP | -0.00302 |
| RRIRKRPPRLPRPRPRPLYSPRP | -0.105 |
| RRIRARPPRLPRPRPRPFPRPRP | 0.0695 |
| RRIRPRPPRLPRPRPRPYIAPRP | -0.395 |
| RRIRHRPPRLPRPRPRPRDMPRP | 0.137 |
| RRIRARPPRLPRPRPRPDALPRP | 0.625 |
| RRIRHRPPRLPRPRPRPFHTPRP | -0.0888 |
| RRIRKRPPRLPRPRPRPVTMPRP | -0.0185 |
| RRIRFRPPRLPRPRPRPTMMPRP | -0.0556 |
| RRIRWRPPRLPRPRPRPVWIPRP | 0.142 |
| RRIRMRPPRLPRPRPRPGEIPRP | 0.995 |

| Sequence | shrunken log2 fold change |
| --- | --- |
| RRIRTRPPRLPRPRPRPSGPPRP | -0.339 |
| RRIRPRPPRLPRPRPRPLVMPRP | 0.0377 |
| RRIRMRPPRLPRPRPRPHTNPRP | 0.0722 |
| RRIRARPPRLPRPRPRPKELPRP | 0.404 |
| RRIRTRPPRLPRPRPRPQMEPRP | 0.00225 |
| RRIRCRPPRLPRPRPRPASRPRP | 0.096 |
| RRIRKRPPRLPRPRPRPYYPPRP | -0.227 |
| RRIRRRPPRLPRPRPRPWVSPRP | -0.0738 |
| RRIRDRPPRLPRPRPRPTENPRP | 0.277 |
| RRIRMRPPRLPRPRPRPVDSPRP | 0.216 |
| RRIRDRPPRLPRPRPRPAVRPRP | -0.0321 |
| RRIRDRPPRLPRPRPRPPMTPRP | 0.425 |
| RRIRIRPPRLPRPRPRPDARPRP | 0.262 |
| RRIRKRPPRLPRPRPRPNQVPRP | -0.0821 |
| RRIRDRPPRLPRPRPRPPIHPRP | -0.487 |
| RRIRPRPPRLPRPRPRPPVVPRP | 0.649 |
| RRIRGRPPRLPRPRPRPLWHPRP | 0.552 |
| RRIRRRPPRLPRPRPRPNSTPRP | -0.0128 |
| RRIRCRPPRLPRPRPRPPRTPRP | 0.818 |
| RRIRERPPRLPRPRPRPITLPRP | 0.0653 |
| RRIRWRPPRLPRPRPRPCFTPRP | -0.0397 |
| RRIRSRPPRLPRPRPRPFAYPRP | -0.348 |

| Sequence | shrunken log2 fold change |
| --- | --- |
| RRIRHRPPRLPRPRPRPMDTPRP | 0.03 |
| RRIRYRPPRLPRPRPRPEFNPRP | -0.221 |
| RRIRWRPPRLPRPRPRPIQHPRP | 0.00853 |
| RRIRYRPPRLPRPRPRPTPGPRP | -0.0705 |
| RRIRYRPPRLPRPRPRPWYIPRP | -0.00804 |
| RRIRERPPRLPRPRPRPTIMPRP | -0.959 |
| RRIRQRPPRLPRPRPRPIYCPRP | -0.0315 |
| RRIRMRPPRLPRPRPRPKVHPRP | -0.132 |
| RRIRDRPPRLPRPRPRPWPFPRP | 0.0405 |
| RRIRCRPPRLPRPRPRPHWEPRP | -0.132 |
| RRIRCRPPRLPRPRPRPSGWPRP | 0.0712 |
| RRIRSRPPRLPRPRPRPHKRPRP | 0.0245 |
| RRIRTRPPRLPRPRPRPAVQPRP | 0.0481 |
| RRIRERPPRLPRPRPRPEVVPRP | 0.122 |
| RRIRYRPPRLPRPRPRPDACPRP | -0.045 |
| RRIRRRPPRLPRPRPRPIWFPRP | 0.0342 |
| RRIRKRPPRLPRPRPRPSIIPRP | -0.221 |
| RRIRHRPPRLPRPRPRPMGAPRP | 0.0492 |
| RRIRMRPPRLPRPRPRPNITPRP | 0.314 |
| RRIRARPPRLPRPRPRPVLIPRP | -0.179 |
| RRIRARPPRLPRPRPRPPQKPRP | 1.29 |
